From paper PMC9889658, “The structure of MadC from Clostridium maddingley reveals new insights into class I lanthipeptide cyclases” (Frontiers in Microbiology, 2023)

Experiments:
[1] = molecular target: NisA precursor peptide (unmodified) (Lactococcus lactis) (UniProt P13068); test: ITC; conditions: cited from earlier work
[2] = molecular target: nisin precursor NisA (unmodified) (Lactococcus lactis) (UniProt P13068); test: ITC; conditions: cited from earlier work
[3] = molecular target: NisA leader peptide leader peptide (Lactococcus lactis) (UniProt P13068); test: ITC; conditions: cited from earlier work
NisA leader peptide leader peptide (Lactococcus lactis), sequence (P13068 1-23): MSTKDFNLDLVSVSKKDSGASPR

[4] = molecular target: maddinglicin leader peptide construct madL3, Leader 3 (−23 − +10) (Clostridium sp. maddingley); test: ITC; MadC (200–600 μM) in the syringe, 20 injections of 2 μl into the cell with the leader variant (20–60 μM); 25°C; 50 mM HEPES, 500 mM NaCl, pH 7.5; at least triplicate
[5] = molecular target: maddinglicin leader peptide construct madL2, Leader 2 (−23 − +5) (Clostridium sp. maddingley); test: as above
[6] = molecular target: maddinglicin leader peptide construct madL1, Leader 1 (−23 – −1) (Clostridium sp. maddingley); test: as above
[7] = molecular target: MadC ∆34 ∆391 (double mutant carrying both deletions, each with an inserted GAG-linker) (Clostridium sp. maddingley); test: SPR
[8] = molecular target: prenisin (dehydrated) (Lactococcus lactis) (UniProt P13068); conditions: cited from earlier work
prenisin (dehydrated) (Lactococcus lactis), sequence (P13068 24-57): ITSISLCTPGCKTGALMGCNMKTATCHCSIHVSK

[9] = molecular target: prenisin (unmodified) (Lactococcus lactis) (UniProt P13068); conditions: cited from earlier work
prenisin (unmodified) (Lactococcus lactis), sequence (P13068 24-57): as above

[10] = molecular target: prenisin (modified) (Lactococcus lactis) (UniProt P13068); conditions: cited from earlier work
prenisin (modified) (Lactococcus lactis), sequence (P13068 24-57): as above

NisB, sequence (P20103 whole entry): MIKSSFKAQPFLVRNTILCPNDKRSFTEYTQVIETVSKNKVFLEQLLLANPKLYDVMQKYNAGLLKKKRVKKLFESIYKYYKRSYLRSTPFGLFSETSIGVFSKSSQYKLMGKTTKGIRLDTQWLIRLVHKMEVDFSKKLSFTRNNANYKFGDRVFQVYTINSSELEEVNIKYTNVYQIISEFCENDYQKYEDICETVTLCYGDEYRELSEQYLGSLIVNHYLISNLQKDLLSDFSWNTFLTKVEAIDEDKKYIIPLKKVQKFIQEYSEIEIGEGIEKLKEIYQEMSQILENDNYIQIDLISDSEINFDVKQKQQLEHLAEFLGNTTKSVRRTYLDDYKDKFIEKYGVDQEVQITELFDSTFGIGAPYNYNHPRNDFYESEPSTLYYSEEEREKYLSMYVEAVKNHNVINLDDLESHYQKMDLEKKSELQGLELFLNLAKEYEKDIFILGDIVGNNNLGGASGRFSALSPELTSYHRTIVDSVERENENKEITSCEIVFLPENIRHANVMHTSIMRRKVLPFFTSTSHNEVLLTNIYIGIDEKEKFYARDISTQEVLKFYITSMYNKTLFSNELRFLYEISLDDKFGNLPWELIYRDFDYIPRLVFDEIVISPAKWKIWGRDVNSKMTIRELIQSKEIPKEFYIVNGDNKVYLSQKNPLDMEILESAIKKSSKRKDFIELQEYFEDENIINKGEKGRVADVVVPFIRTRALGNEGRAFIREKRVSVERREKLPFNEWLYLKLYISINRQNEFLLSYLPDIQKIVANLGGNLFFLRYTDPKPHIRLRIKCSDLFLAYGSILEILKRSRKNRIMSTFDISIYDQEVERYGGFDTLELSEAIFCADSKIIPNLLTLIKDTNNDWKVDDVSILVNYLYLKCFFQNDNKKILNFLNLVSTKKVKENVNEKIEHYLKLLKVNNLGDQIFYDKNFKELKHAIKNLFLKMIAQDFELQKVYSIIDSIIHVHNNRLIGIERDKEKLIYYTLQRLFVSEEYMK
NisC, sequence (Q03202 whole entry): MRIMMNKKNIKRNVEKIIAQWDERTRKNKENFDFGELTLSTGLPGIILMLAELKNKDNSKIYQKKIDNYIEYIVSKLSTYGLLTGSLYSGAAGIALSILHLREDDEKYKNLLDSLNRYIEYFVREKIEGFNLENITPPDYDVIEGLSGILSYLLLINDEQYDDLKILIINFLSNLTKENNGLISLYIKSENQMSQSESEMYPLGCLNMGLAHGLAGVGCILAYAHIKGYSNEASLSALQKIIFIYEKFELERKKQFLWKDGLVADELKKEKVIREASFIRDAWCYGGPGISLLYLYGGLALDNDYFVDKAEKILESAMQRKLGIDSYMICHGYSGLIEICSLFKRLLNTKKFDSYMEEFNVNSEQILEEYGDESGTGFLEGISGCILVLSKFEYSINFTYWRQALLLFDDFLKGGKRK
NisA precursor peptide (unmodified) (Lactococcus lactis), sequence (P13068 24-57): as the sequence (P13068 24-57) above
nisin precursor NisA (unmodified) (Lactococcus lactis), sequence (P13068 24-57): as above

For NisC (from UniProt Q03202), the Kd [1] is listed as 2400 nM, the Kd [2] is listed as 2000 nM and the Kd [3] is listed as 3.8 µM.
Substance “MadC (lanthionine cyclase of Clostridium sp. maddingley), His6-tag cleaved off (enzyme)” has a dH [4] of -30.6 kJ/mol, a stoichiometry N [4] of 0.99 and a dH [5] of -25.2 kJ/mol. The stoichiometry N [5] was 0.99, the dH [6] was -36.7 kJ/mol and the stoichiometry N [6] was 0.83.
Substance “maddinglicin leader peptide construct madL3, Leader 3 (−23 − +10)” has a Kd [7] of 35 µM.
In the case of NisB (from UniProt P20103), the Kd [8] is given as 300 nM, the Kd [9] is given as 1000 nM and the Kd [10] is given as 10.5 µM.
